Measurements as given in PMC3079584, “A Cytoplasmic Complex Mediates Specific mRNA Recognition and Localization in Yeast”.

Legend:
[1] = target: She2p (ΔhE);She3p (Saccharomyces cerevisiae;Saccharomyces …, UniProt P36068;P38272 1-246;1-425, del174-183|); test: EMSA; no mobility shift; EMSA: 20 mM HEPES pH 7.8, 200 mM NaCl, 2 mM MgCl2, 2 mM DTT, 4% glycerol, 30 or 100 ug/ml yeast tRNA, 5 nM RNA, 20 C; filter binding: 20 mM HEPES pH 7.4-7.5 (7.9 with She3p), 150 mM NaCl, 2 mM MgCl2, 2 mM DTT, 30 ug/ml yeast tRNA, 0.5 nM RNA; pull-down: HNMD buffer, 4 C; conditions: protein: recombinant;recombinant; tags: GST tag (PreScission-cleaved);C-terminal His6; chain copies: 4;2; label: 32P; stem-loop
She2p (ΔhE);She3p, sequence (P36068 other isoform, or with tags, fused parts or gaps del174-183| | mutant): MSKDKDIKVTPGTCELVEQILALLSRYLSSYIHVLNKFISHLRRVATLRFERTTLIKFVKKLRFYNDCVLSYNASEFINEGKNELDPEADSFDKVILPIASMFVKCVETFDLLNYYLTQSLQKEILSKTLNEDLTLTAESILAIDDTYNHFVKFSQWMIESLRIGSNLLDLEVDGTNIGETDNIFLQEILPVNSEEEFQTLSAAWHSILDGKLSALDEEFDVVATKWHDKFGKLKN

[2] = target: She2p;She3p (Saccharomyces cerevisiae;Saccharomyces …, UniProt P36068;P38272 1-246;1-425, |); test: EMSA; She3p constant 25 nM, She2p varied; EMSA: 20 mM HEPES pH 7.8, 200 mM NaCl, 2 mM MgCl2, 2 mM DTT, 4% glycerol, 30 or 100 ug/ml yeast tRNA, 5 nM RNA, 20 C; filter binding: 20 mM HEPES pH 7.4-7.5 (7.9 with She3p), 150 mM NaCl, 2 mM MgCl2, 2 mM DTT, 30 ug/ml yeast tRNA, 0.5 nM RNA; pull-down: HNMD buffer, 4 C; conditions: protein: recombinant;recombinant; tags: GST tag (PreScission-cleaved);C-terminal His6; chain copies: 4;2; label: 32P; stem-loop
She2p;She3p, sequence (P36068 whole entry, one chain of several): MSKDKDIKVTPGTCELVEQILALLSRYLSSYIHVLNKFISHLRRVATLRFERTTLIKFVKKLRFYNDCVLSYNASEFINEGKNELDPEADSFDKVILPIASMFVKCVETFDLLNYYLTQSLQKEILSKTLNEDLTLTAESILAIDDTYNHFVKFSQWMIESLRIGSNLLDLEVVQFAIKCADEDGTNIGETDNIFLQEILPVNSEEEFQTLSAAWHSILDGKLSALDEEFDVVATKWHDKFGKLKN

B1: ASH1 E3-118 (structured_RNA)
RNA: GAGACAGUAGAGAAUUGAUACAUGGAUAACUGAAUCUCUUUCAACUAAUAAGAGACAUUAUCACGAAACAAUUGUACAUUUCUCUCCUUGUCUGUGCUAAAUAAACUACAAAUAAAAA
binding result [1]: no binding
Kd [2]: ~25 nM
